# Results taken from the Human Domainome abundance scans (Beltran et al. 2025).
# ± gives the uncertainty stated by the source.
# B1: Far upstream element-binding protein 3, residues 75 to 150; numbered along this chain, Q96I24 (parent)
# chain: RTVITEEFKVPDKMVGFIIGRGGEQISRIQAESGCKIQIASESSGIPERPCVLTGTPESIEQAKRLLGQIVDRCRN
# Variants of: B1
# Test: abundance fitness (aPCA) (normalised: wild type 0, dead -1); higher = more abundant; growth selection in yeast, the domain comes from the species named
# Settings: Homo sapiens
row,Variant,abundance fitness
1,RTVITEEFKVPDKMVGFIIGRGGEQISRIQAESGCKIQIASESSGIPERPCVLTGTPESIEQAKRPLGQIVDRCRN,-0.899 ± 0.07
2,RTVITEEFKVPDKMVGFIIGRGGEQISRIQAESGCKIQIAWESSGIPERPCVLTGTPESIEQAKRLLGQIVDRCRN,-0.159 ± 0.033
3,RTVITEEFKVPDKMVGFIIGRGGEQISRIQAESGCKIQIASESSGIPERPCVLTGTPERIEQAKRLLGQIVDRCRN,-0.141 ± 0.028
4,RTVITEEFKVPDKMVGFIIGRGGEQISRIQAESGCKIQIASESSGIPERPCVLTGTPESIEQALRLLGQIVDRCRN,-0.491 ± 0.031
5,RTVITEEFKVPDKMVGFIIGRGGEQISRIQAESGCKIQIASESSGIPERPCVLTGTPESIEQAKRLHGQIVDRCRN,-0.908 ± 0.21
6,RTVITEEFKVYDKMVGFIIGRGGEQISRIQAESGCKIQIASESSGIPERPCVLTGTPESIEQAKRLLGQIVDRCRN,-0.303 ± 0.068
7,RTVITEEFKVPDKMVGFIIGRGGEQISRIQAESGCKIQIASESSGIPERPCVLTGTPESIEQAKRLLGQIVDRCRM,-0.008 ± 0.077
8,RTVITEEFKVPDKMVGFIIGRGGEQISRIQAESGCKIQIASESSGIPERPCVLTGTPESIEFAKRLLGQIVDRCRN,-0.043 ± 0.038
9,RTVITEEFKVPDKMVGFIIGRGGEQISRIQAESGCKIQIASESSGIPERPCVLTGTPESIEAAKRLLGQIVDRCRN,-0.01 ± 0.033
10,RTVITEEFKVPDKMVGFIIGRGGEQISRIQAESGCKIQIASESSLIPERPCVLTGTPESIEQAKRLLGQIVDRCRN,-0.124 ± 0.029
11,RTVITEEFKVPDKMVGFIIGRGGEQISRIQAESGCKIQIASESSGIPERPCVLTGTPESEEQAKRLLGQIVDRCRN,-0.877 ± 0.058
12,RTVITEEFKVPDKMVGFIIGRGGEQISRIQAESGCKIQIASESSGIPERPTVLTGTPESIEQAKRLLGQIVDRCRN,-0.108 ± 0.043
13,RTVITEEFKVPDKMVGFIIGRGGEQISRIQAESGCKIQIASESSGIPERPCPLTGTPESIEQAKRLLGQIVDRCRN,-0.931 ± 0.069
14,RTVITEEFKVMDKMVGFIIGRGGEQISRIQAESGCKIQIASESSGIPERPCVLTGTPESIEQAKRLLGQIVDRCRN,-0.259 ± 0.043
15,REVITEEFKVPDKMVGFIIGRGGEQISRIQAESGCKIQIASESSGIPERPCVLTGTPESIEQAKRLLGQIVDRCRN,0 ± 0.04
16,RTVITEEFKVPDKMVGFIIGRGGEQISRIQAESGCKIQIASESSGIPERPCVLTGTPESIEQAKRLLGQIVDRCDN,-0.082 ± 0.058
17,RTVITEEFKVPDKMVGFIIGRGGEQISRIQAESGCKIQIASESSGIPERPCVLTGTPESFEQAKRLLGQIVDRCRN,-0.754 ± 0.076
18,RTVITEEFKVPDKMVGFIIGRGGEQISRIVAESGCKIQIASESSGIPERPCVLTGTPESIEQAKRLLGQIVDRCRN,-0.142 ± 0.031

row,Variant,abundance fitness
1,RTVITEEFKVPDKMVGFIIGRGGEQISRIQAESGCKIQIASESSGIPERPCVLTGTPESIEQAKRLLGAIVDRCRN,-0.006 ± 0.032
2,RTVITEEFIVPDKMVGFIIGRGGEQISRIQAESGCKIQIASESSGIPERPCVLTGTPESIEQAKRLLGQIVDRCRN,-0.106 ± 0.059
3,RTVITEEFKVPDKMVGFIIGRGGEQISRIQAESGCKIQIASESSGIPERPCVLGGTPESIEQAKRLLGQIVDRCRN,-0.512 ± 0.041
4,RTVITEEFKVPDKMVGFIIGRGGEQISRIQAESGCKIQWASESSGIPERPCVLTGTPESIEQAKRLLGQIVDRCRN,-0.159 ± 0.031
5,RTVITEEFKVPDKMVGFIIGRGGEQISRIQAENGCKIQIASESSGIPERPCVLTGTPESIEQAKRLLGQIVDRCRN,-0.685 ± 0.075
6,RTVITEEFKVPDKMVGFIIGRGGEQISRIQAESGCKIQIASESSGIPEGPCVLTGTPESIEQAKRLLGQIVDRCRN,-0.129 ± 0.026
7,RTVITEEFKVPDKMVGFIIGRGGEQISRIQAESGCKIQIASESSGIPERPCVLTGAPESIEQAKRLLGQIVDRCRN,-0.086 ± 0.032
8,RTVITEEFKVPDKMVGFIIGRGGEQISRIQAESGCKIQIASESSGIPERPCVLTGTPESIEQAKRLLGQIVDRCRR,0.055 ± 0.042
9,RTVITEEFKVPDKMEGFIIGRGGEQISRIQAESGCKIQIASESSGIPERPCVLTGTPESIEQAKRLLGQIVDRCRN,-0.183 ± 0.033
10,RTVNTEEFKVPDKMVGFIIGRGGEQISRIQAESGCKIQIASESSGIPERPCVLTGTPESIEQAKRLLGQIVDRCRN,-0.081 ± 0.061
11,RTVITEEFKVPDKMVGFIIGRGGEQISRIQAESGCKLQIASESSGIPERPCVLTGTPESIEQAKRLLGQIVDRCRN,-0.158 ± 0.031
12,RTVITEEFKVPDKMVGFIIGRGGEQISSIQAESGCKIQIASESSGIPERPCVLTGTPESIEQAKRLLGQIVDRCRN,-0.085 ± 0.035
13,RTVITEEFKVPDAMVGFIIGRGGEQISRIQAESGCKIQIASESSGIPERPCVLTGTPESIEQAKRLLGQIVDRCRN,-0.054 ± 0.03
14,RTVITEEYKVPDKMVGFIIGRGGEQISRIQAESGCKIQIASESSGIPERPCVLTGTPESIEQAKRLLGQIVDRCRN,-0.024 ± 0.076
15,RTVITEEFKVPDKMVGFIIGRGGWQISRIQAESGCKIQIASESSGIPERPCVLTGTPESIEQAKRLLGQIVDRCRN,0.222 ± 0.032
16,RTVITEEFKVPDKMVGFIIGRGGEQISRIQAESGCKIQIASESSGIPERPCVLTGTPESIEQMKRLLGQIVDRCRN,-0.292 ± 0.041
17,RTVITEEFKVPDKMVGFIIGRGGEQQSRIQAESGCKIQIASESSGIPERPCVLTGTPESIEQAKRLLGQIVDRCRN,-0.193 ± 0.039
18,RTVITEEFKVPDKMVGFIIGRGGEQISRIQAESGCKIQIASESSGIPERPCVLTGTPECIEQAKRLLGQIVDRCRN,-0.146 ± 0.047
